Results taken from patent US20130344073.

Columns and labels:
[1] = target: pro-factor D-His (UniProt P00746)
[2] = target: ST-pro-factor D-His (UniProt P00746)

Chain of full length wild type recombinant human MASP-3 (chain): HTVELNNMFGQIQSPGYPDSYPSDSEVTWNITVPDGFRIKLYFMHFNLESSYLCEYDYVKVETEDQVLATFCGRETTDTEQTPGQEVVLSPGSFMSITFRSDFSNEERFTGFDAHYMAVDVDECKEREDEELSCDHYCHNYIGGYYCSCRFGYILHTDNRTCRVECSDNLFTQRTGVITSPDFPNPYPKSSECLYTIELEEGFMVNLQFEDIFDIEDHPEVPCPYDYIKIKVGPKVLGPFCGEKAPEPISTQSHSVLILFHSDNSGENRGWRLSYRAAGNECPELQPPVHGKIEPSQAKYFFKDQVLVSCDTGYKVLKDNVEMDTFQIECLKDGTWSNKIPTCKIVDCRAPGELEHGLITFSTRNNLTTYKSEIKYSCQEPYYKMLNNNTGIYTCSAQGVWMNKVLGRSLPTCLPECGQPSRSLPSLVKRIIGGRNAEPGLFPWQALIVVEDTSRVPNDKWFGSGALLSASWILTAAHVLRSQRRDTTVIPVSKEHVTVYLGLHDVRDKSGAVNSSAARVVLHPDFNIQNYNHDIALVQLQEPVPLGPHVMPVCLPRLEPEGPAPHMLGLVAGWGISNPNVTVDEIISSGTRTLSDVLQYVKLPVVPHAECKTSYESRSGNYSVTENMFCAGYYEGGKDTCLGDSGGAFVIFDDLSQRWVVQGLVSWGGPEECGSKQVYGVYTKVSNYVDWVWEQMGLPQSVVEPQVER

| Substance | cleavage of pro-factor D (Western blot) [1] | cleavage of pro-factor D (Western blot) [2] |
| --- | --- | --- |
| catalytically-inactive full length MASP-3 (S679A) | The catalytically-inactive full length MASP-3 (S679A; lane 3) and MASP-1 (S646A; lane 3) failed to cleave either substrate | The catalytically-inactive full length MASP-3 (S679A; lane 3) and MASP-1 (S646A; lane 3) failed to cleave either substrate |
| full length wild type recombinant human MASP-3 | Identical results were obtained with the pro-factor D-His6 polypeptide (not shown) | only full length MASP-3 (lane 2) and the MASP-1 CCP1-CCP2-SP) fragment (lane 5) cleaved ST-pro-factor D-His6 |
